Source: the RNAGym collection of RNA variant scans (doi:10.1093/molbev/msab373)

B1: Azoarcus group I ribozyme (parent)
chain: GUGCCUUGCGCCGGGAAACCACGCAAGGGAUGGUGUCAAAUUCGGCGAAACCUAAGCGCCCGCCCGGGCGUAUGGCAACGCCGAGCCAAGCUUCGGCGCCUGCGCCGAUGAAGGUGUAGAGACUAGACGGCACCCACCUAAGGCAAACGCUAUGGUGAAGGCAUAGUCCAGGGAGUGGCGAAAGUCACACAAACCGG

Variants of: B1
Assay: reverse-splicing fitness (ratio to wild type); higher = more active; in vitro selection; Mg2+ level not given
Method in brief: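 An in vitro group I ribozyme library with randomized positions was T7-transcribed and gel-purified. In triplicate, 10 pmol RNA in EPPS pH 7.5 was reacted with 50 pmoles of a 30-nt RNA substrate for 1 h at 37 °C across several added MgCl2 levels (1–48 mM), then stopped with EDTA. Products were reverse transcribed from a substrate-complementary primer, PCR-amplified and sequenced (HiSeq 4000). Fitness is a variant's read proportion after selection over that before, normalised to wild type.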

| Variant | reverse-splicing fitness |
| --- | --- |
| C82U A111C A120U A145C C150A C169U U176A | 0.00323 |
| C82U A111C A120U A145C C150A C169U U176G | 0.00207 |
| C82U A111C A120U A145C C150A C169U U176C | 0.00249 |
| C82U A111C A120U C150G U176C | 0.00605 |
| C82U A111C A120U C150G U176G | 0.00291 |
| C82U A111C A120U C150G U176A | 0.0035 |
| C82U A111C A120U A145C C169A U176G | 0.0017 |
| C82U A111C A120U A145C C169A U176A | 0.00241 |
| C82U A111C A120U A145C C169A U176C | 0.00244 |
| C82U A111C A120U A145C C169U U176C | 0.00263 |
| C82U A111C A120U A145C C169U U176A | 0.00335 |
| C82U A111C A120U A145C C169U U176G | 0.00205 |
| C82U A111C A145G C150A C169G U176G | 0.00685 |
| C82U A111C A145G C150A C169G U176C | 0.0256 |
| C82U A111C A145G C150A C169G U176A | 0.014 |
| C82U A111C A120U A145U C150U C169U U176G | 0.00223 |
| C82U A111C A120U A145U C150U C169U U176C | 0.003 |
| C82U A111C A120U A145U C150U C169U U176A | 0.00267 |
| C82U A111C A120U C150U C169U | 0.00505 |
| C82U A111C A120U C150U C169G | 0.00449 |
| C82U A111C A120U C150U C169A | 0.00496 |

| Variant | reverse-splicing fitness |
| --- | --- |
| C82U A111C A145G C150A C169U U176A | 0.0144 |
| C82U A111C A145G C150A C169U U176G | 0.00739 |
| C82U A111C A145G C150A C169U U176C | 0.0157 |
| C82U A111C A120U A145U C150A C169U U176G | 0.00245 |
| C82U A111C A120U A145U C150A C169U U176C | 0.00256 |
| C82U A111C A120U A145U C150A C169U U176A | 0.00365 |
| C82U A111C A120U A145U C169G | 0.00369 |
| C82U A111C A120U A145U C169U | 0.00366 |
| C82U A111C A120U A145U C169A | 0.00238 |
| C82U A111C A120U A145C C150U C169G U176C | 0.00273 |
| C82U A111C A120U A145C C150U C169G U176A | 0.003 |
| C82U A111C A120U A145C C150U C169G U176G | 0.00216 |
| C82U A111C A120U A145G C150G C169G U176C | 0.00782 |
| C82U A111C A120U A145G C150G C169G U176A | 0.00829 |
| C82U A111C A120U A145G C150G C169G U176G | 0.00376 |
| C82U A111C A120U C150G C169G U176C | 0.00317 |
| C82U A111C A120U C150G C169G U176A | 0.00425 |
| C82U A111C A120U C150G C169G U176G | 0.00254 |
| C82U A111C A120U C169G | 0.00401 |
| C82U A111C A120U C169A | 0.00322 |
| C82U A111C A120U C169U | 0.00529 |

| Variant | reverse-splicing fitness |
| --- | --- |
| C82U A111C A120U A145U C169G U176C | 0.00286 |
| C82U A111C A120U A145U C169G U176A | 0.00259 |
| C82U A111C A120U A145U C169G U176G | 0.00187 |
| C82U A111C A145G C150A C169A U176G | 0.00838 |
| C82U A111C A145G C150A C169A U176C | 0.0197 |
| C82U A111C A145G C150A C169A U176A | 0.0149 |
| C82U A111C A120U A145G C150A U176C | 0.00717 |
| C82U A111C A120U A145G C150A U176A | 0.00653 |
| C82U A111C A120U A145G C150A U176G | 0.00319 |
| C82U A111C A120U C150G | 0.00681 |
| C82U A111C A120U C150U | 0.0166 |
| C82U A111C A120U C150A | 0.0078 |
| C82U A111C A120U C150U U176C | 0.00907 |
| C82U A111C A120U C150U U176A | 0.00642 |
| C82U A111C A120U C150U U176G | 0.00332 |
| C82U A111C A120U A145C C150U C169U U176C | 0.00255 |
| C82U A111C A120U A145C C150U C169U U176G | 0.00224 |
| C82U A111C A120U A145C C150U C169U U176A | 0.00314 |
| C82U A111C A120U A145U C150U C169A | 0.00252 |
| C82U A111C A120U A145U C150U C169U | 0.0037 |
| C82U A111C A120U A145U C150U C169G | 0.00301 |

| Variant | reverse-splicing fitness |
| --- | --- |
| C82U A111C A120U | 0.0257 |
| C82U A111C A145C C150U C169A U176C | 0.01 |
| C82U A111C A145C C150U C169A U176A | 0.011 |
| C82U A111C A145C C150U C169A U176G | 0.00687 |
| C82U A111C A120U A145U C169U U176G | 0.00166 |
| C82U A111C A120U A145U C169U U176C | 0.00255 |
| C82U A111C A120U A145U C169U U176A | 0.00256 |
| C82U A111C A120U C150G C169A | 0.00691 |
| C82U A111C A120U C150G C169G | 0.00621 |
| C82U A111C A120U C150G C169U | 0.00611 |
| C82U A111C A120U A145G C150U U176A | 0.00854 |
| C82U A111C A120U A145G C150U U176G | 0.00287 |
| C82U A111C A120U A145G C150U U176C | 0.0107 |
| C82U A111C A145C C150U C169G U176C | 0.0168 |
| C82U A111C A145C C150U C169G U176A | 0.0257 |
| C82U A111C A145C C150U C169G U176G | 0.0077 |
| C82U A111C A120U A145G C150G C169U | 0.0067 |
| C82U A111C A120U A145G C150G C169A | 0.00772 |
| C82U A111C A120U A145G C150G C169G | 0.00651 |
| C82U A111C A120U A145C C150A C169G U176G | 0.00223 |
